Results on 5 proteins are retold here after publication PMC11870023, “A facile assay for zDHHC palmitoyl transferase activation elucidates effects of mutation and modification” (Journal of Lipid Research, 2025).

Changes are numbered by the printed parent chain. Numbers in names are those of the source.

Experiment in all cases: auto-S-palmitoylation of HEK293 membranes, SDS-PAGE fluorescence normalised to tag Western blot
A general note: Immunoblotting shows a protein as a band on a membrane.

Substrate in data set [1]: CC(C)(COP(=O)(O)OP(=O)(O)OC[C@H]1O[C@@H](n2cnc3c(N)ncnc32)[C@H](O)[C@@H]1OP(=O)(O)O)[C@@H](O)C(=O)NCCC(=O)NCCSC(=O)CCCCCCCCCCCCCCCNc1ccc([N+](=O)[O-])c2nonc12
The data set is classed as cell-based, Homo sapiens. Conditions: pH 7.4, 37 °C, 2 min, labelled compound, covalent thioester at active-site Cys. An excerpt: auto-S-palmitoylation of HEK293 membranes, SDS-PAGE fluorescence normalised to tag Western blot on human zDHHC2 | neither S306 F nor M356I mutation of zDHHC2 within the C-terminal cytoplasmic tail

Substrate in data set [2]: CC(C)(COP(=O)(O)OP(=O)(O)OC[C@H]1O[C@@H](n2cnc3c(N)ncnc32)[C@H](O)[C@@H]1OP(=O)(O)O)[C@@H](O)C(=O)NCCC(=O)NCCSC(=O)CCCCCCCCCCCCCCCNc1ccc([N+](=O)[O-])c2nonc12
The data set is classed as biochemical, Mus musculus. Conditions: pH 7.4, 37 °C, 2 min, labelled compound, covalent thioester at active-site Cys134.

Substrate in data set [3]: CC(C)(COP(=O)(O)OP(=O)(O)OC[C@H]1O[C@@H](n2cnc3c(N)ncnc32)[C@H](O)[C@@H]1OP(=O)(O)O)[C@@H](O)C(=O)NCCC(=O)NCCSC(=O)CCCCCCCCCCCCCCCNc1ccc([N+](=O)[O-])c2nonc12
The data set is classed as cell-based, Homo sapiens. Conditions: pH 7.4, 37 °C, 2 min, labelled compound, covalent thioester at active-site Cys. An excerpt:
auto-S-palmitoylation of HEK293 membranes, SDS-PAGE fluorescence normalised to tag Western blot on human zDHHC14 | A373Y mutation within the N-terminal cytoplasmic tail of zDHHC14 (Fig. 4A) had no effect
This is another data set of the same source.

Substrate in data set [4]: CC(C)(COP(=O)(O)OP(=O)(O)OC[C@H]1O[C@@H](n2cnc3c(N)ncnc32)[C@H](O)[C@@H]1OP(=O)(O)O)[C@@H](O)C(=O)NCCC(=O)NCCSC(=O)CCCCCCCCCCCCCCCNc1ccc([N+](=O)[O-])c2nonc12
The data set is classed as cell-based, Homo sapiens. Conditions: pH 7.4, 37 °C, 2 min, labelled compound, covalent thioester at active-site Cys. An excerpt:
auto-S-palmitoylation of HEK293 membranes, SDS-PAGE fluorescence normalised to tag Western blot on human zDHHC14 | L215S mutation within the third transmembrane segment of zDHHC14 (Fig. 4A) substantially diminished auto-S-palmitoylation
This is another data set of the same source.

B1: human zDHHC2 (Homo sapiens; S306F) (protein)
chain: MAPSGPGSSARRRCRRVLYWIPVVFITLLLGWSYYAYAIQLCIVSMENTGEQVVCLMAYHLLFAMFVWSYWKTIFTLPMNPSKEFHLSYAEKDLLEREPRGEAHQEVLRRAAKDLPIYTRTMSGAIRYCDRCQLIKPDRCHHCSVCDKCILKMDHHCPWVNNCVGFSNYKFFLLFLAYSLLYCLFIAATDLQYFIKFWTNGLPDTQAKFHIMFLFFAAAMFSVSLSSLFGYHCWLVSKNKSTLEAFRSPVFRHGTDKNGFSLGFSKNMRQVFGDEKKYWLLPIFSSLGDGCSFPTCLVNQDPEQAFTPAGLNSTAKNLENHQFPAKPLRESQSHLLTDSQSWTESSINPGKCKAGMSNPALTMENET
notes: full length, His6-Myc tag kept (pCEpuro-His6-Myc-1), HEK293 membrane fraction
On to B1, for which, in data set [1], the Km (usually the substrate concentration at which the rate is half of its maximum) stood at 3.36 ± 0.73 µM.

B2: human zDHHC2 (Homo sapiens; M356I) (protein)
chain: B1 chain with F306S, M356I
notes: as for B1
As to B2, the Km in data set [1] is 4.59 ± 0.89 µM.

B3: HA-tagged mouse zDHHC5 (Mus musculus; C236S/C237S/C245S) (protein)
chain: MPAESGKRFKPSKYVPVSAAAIFLVGATTLFFAFTCPGLSLNVSPAVPIYNAIMFLFVLANFSMATFMDPGIFPRAEEDEDKEDDFRAPLYKTVEIKGIQVRMKWCATCRFYRPPRCSHCSVCDNCVEEFDHHCPWVNNCIGRRNYRYFFLFLLSLTAHIMGVFGFGLLYVLYHIEELSGVRTAVTMAVMCVAGLFFIPVAGLTGFHVVLVARGRTTNEQVTGKFRGGVNPFTNGSSNNVSRVLSSSPAPRYLGRPKKEKTIVIRPPFLRPEVSDGQITVKIMDNGIQGELRRTKSKGSLEITESQSADAEPPPPPKPDLSRYTGLRTHLSLATNEDSSLLGKDSPPTPTMYKYRPGYSSSSTSAAMPHSSSAKLSRGDSLKEPTSIADSSRHPSYRSEPSLEPESFRSPTFGKSFHFDPLSSGSRSSSLKSAQGTGFELGQLQSIRSEGTTSTSYKSLANQTRNGSLSYDSLLTPSDSPDFESVQAGPEPDPPLGYTSPFLSARLAQQREAERHPRLLPTGPPHREPSPVRYDNLSRHIVASLQEREKLLRQSPPLAGREEEPGLGDSGIQSTPGSGHAPRTSSSSDDSKRSPLSKTPLGRPAVPRFGKPDGLRSRGLGSPEPGTTAPYLGRSISYSSQKAPSGVSETEEVALQPLLTPKDEVQLKTTYSKSNGQPKSIGSASPGPGQPPLSSPTRGGVKKVSGVGGTTYEISV
notes: full length, HA tag kept (pEF-Bos-HA), overexpressed in HEK293 cells, native membrane fraction; 78 kDa band
Regarding B3, the Km in data set [2] is 17.95 ± 11.12 µM.

B4: human zDHHC14 (Homo sapiens; A373Y) (protein)
chain: MPPGGGGPMKDCEYSQISTHSSSPMESPHKKKKIAARRKWEVFPGRNKFFCNGRIMMARQTGVFYLTLVLILVTSGLFFAFDCPYLAVKITPAIPAVAGILFFFVMGTLLRTSFSDPGVLPRATPDEAADLERQIDIANGTSSGGYRPPPRTKEVIINGQTVKLKYCFTCKIFRPPRASHCSLCDNCVERFDHHCPWVGNCVGKRNYRFFYMFILSLSFLTVFIFAFVITHVILRSQQTGFLNALKDSPASVLEAVVCFFSVWSIVGLSGFHTYLISSNQTTNEDIKGSWSNKRGKENYNPYSYGNIFTNCCVALCGPISPSLIDRRGYIQPDTPQPAAPSNGITMYGATQSQSDMCDQDQCIQSTKFVLQAYATPLLQSEPSLTSDELHLPGKPGLGTPCASLTLGPPTPPASMPNLAEATLADVMPRKDEHMGHQFLTPDEAPSPPRLLAAGSPLAHSRTMHVLGLASQDSLHEDSVRGLVKLSSV
notes: as for B1
On to B4, for which the Michaelis constant (Km) in data set [3] was found to be 1.72 ± 0.50 µM.

B5: human zDHHC14 (Homo sapiens; L215S) (protein)
chain: B4 chain with L215S, Y373A
notes: as for B1
As for B5, the Michaelis constant (Km) in data set [4] was 4.46 ± 2.66 µM.
